Source: patent US20100330106A1 (Regeneron, published 2010)

Target: human DII4 (delta-like ligand 4) (human, UniProt Q9NR61 27-524, limits assumed)
Assay: cell-based or functional assay

Chain of human DII4 (delta-like ligand 4) (Q9NR61 27-524 limits assumed, stated change not applied): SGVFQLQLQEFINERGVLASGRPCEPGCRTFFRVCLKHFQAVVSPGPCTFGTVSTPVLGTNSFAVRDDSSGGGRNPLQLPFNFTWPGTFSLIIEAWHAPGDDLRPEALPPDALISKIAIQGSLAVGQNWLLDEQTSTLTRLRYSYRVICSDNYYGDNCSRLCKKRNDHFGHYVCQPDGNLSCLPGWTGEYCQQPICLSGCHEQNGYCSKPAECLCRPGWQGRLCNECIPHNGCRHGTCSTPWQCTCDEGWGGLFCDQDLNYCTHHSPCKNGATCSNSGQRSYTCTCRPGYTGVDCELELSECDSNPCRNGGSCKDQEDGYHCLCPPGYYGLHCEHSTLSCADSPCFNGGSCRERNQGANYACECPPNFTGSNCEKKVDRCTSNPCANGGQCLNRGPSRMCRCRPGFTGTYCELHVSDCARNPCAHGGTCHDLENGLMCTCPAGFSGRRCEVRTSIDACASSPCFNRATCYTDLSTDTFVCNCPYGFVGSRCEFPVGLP

- Hey-1 transcript, Post-treatment vs. Pre-treatment ratio (microarray, patient 1, dose 0.25 mg/kg, 24 hours after REGN421 administration): 0.52 ratio
- Hey-1 transcript, Post-treatment vs. Pre-treatment ratio (microarray, patient 2, dose 0.25 mg/kg, 24 hours after REGN421 administration): 0.85 ratio
- Hey-1 transcript, Post-treatment vs. Pre-treatment ratio (microarray, patient 3, dose 0.25 mg/kg, 24 hours after REGN421 administration): 0.77 ratio
- Hey-1 transcript, Post-treatment vs. Pre-treatment ratio (microarray, patient 4, dose 0.25 mg/kg, 24 hours after REGN421 administration): 0.51 ratio
- Hey-1 transcript, Post-treatment vs. Pre-treatment ratio (microarray, patient 5, dose 0.25 mg/kg, 24 hours after REGN421 administration): 0.61 ratio
- Hey-1 transcript, Post-treatment vs. Pre-treatment ratio (microarray, patient 6, dose 0.25 mg/kg, 24 hours after REGN421 administration): 0.55 ratio
- Hey-1 transcript, Post-treatment vs. Pre-treatment ratio (microarray, patient 7, dose 0.25 mg/kg, 24 hours after REGN421 administration): 0.75 ratio
- Hey-1 transcript, Post-treatment vs. Pre-treatment ratio (microarray, patient 8, dose 0.5 mg/kg, 24 hours after REGN421 administration): 0.68 ratio
- Hey-1 transcript, Post-treatment vs. Pre-treatment ratio (microarray, patient 9, dose 0.5 mg/kg, 24 hours after REGN421 administration): 0.82 ratio
B1: REGN421 (antibody, V domains shown)
VH: QVQLVESGGGVVQPGRSLRLSCAASGFTFSSYGMHWVRQAPGKGLEWVSFLWYDGTNKNYVESVKGRFTISRDNSKNMLYLEMNSLRAEDTAVYYCARDHDFRSGYEGWFDPWGQGTLVTVSS
VL: EIVLTQSPATLSLSPGERATLSCRASQSVSSYLAWYQQKPGQAPRLLIYDASNRATGIPARFSGSGSGTDFTLTISSLEPEDFAVYYCQHRSNWPPTFGGGTKVEIK
